Literature values as cited in publication PMC10474648, “Design of chimeric GLP-1A using oligomeric bile acids to utilize transporter-mediated endocytosis for oral delivery” (Biomaterials Research, 2023).

Key:
[1] = cited from earlier work
Excerpt: Diabetes is a representative chronic disease that requires lifetime management. Because of the need for frequent and combination dosing, most hypoglycemic therapeutics are small molecule-based oral drugs.

GLP-1R = settings: read-out: Kd, GLP-1R binding; cited from earlier work
Excerpt: Cellular penetration may occur by two pathways: the paracellular and transcellular pathways. […] Additionally, ...

Substance | Half-life [1] [h] | Kd (GLP-1R) [nM]
semaglutide | 170 | 0.38
dulaglutide | 120 | 
